Consider 15 molecules from patent publication US20190153108A1 (AbbVie / Abbott, published 2019).

Positions count from the first letter of the chain named.

Sequences and labels used below:
B1: AbK-TV (antibody, V domains shown)
VH: EVQLQESGPGLVKPSQTLSLTCTVSGYSISRDFAWNWIRQPPGKGLEWMGYISYNGNTRYQPSLKSRITISRDTSKNQFFLKLNSVTAADTATYYCVTASRGFPWWGQGTLVTVSS
VL: DIQMTQSPSSMSVSVGDRVTITCHSSQDITYNVGWLQQKPGKSFKGLIYHGSNLDHGVPSRFSGSGSGTDYTLTISSLQPEDFATYYCVQYDDFPWTFGGGTKLEIKR
modifications: synthon TV on reduced interchain Cys
B2: AbK-AAA (antibody, V domains shown)
VH: B1 VH
VL: B1 VL
modifications: synthon AAA on reduced interchain Cys
B3: AbK-YY (antibody, V domains shown)
VH: B1 VH
VL: B1 VL
modifications: synthon YY on reduced interchain Cys
B4: AbA-LB (antibody, V domains shown)
VH: B1 VH with W105Y
VL: B1 VL with T30N, Y31S, V33I, S52T, H56D, D92A, D93Q
modifications: synthon LB on reduced interchain Cys
B5: AbK-WD (antibody, V domains shown)
VH: B1 VH
VL: B1 VL
modifications: synthon WD on reduced interchain Cys
B6: AbB-WD (antibody, V domains shown)
VH: B1 VH with R31N, N55K
VL: B1 VL with T30N, Y31S, V33I, S52T, H56D, D92A, D93Q
modifications: synthon WD on reduced interchain Cys
B7: AbA-ZZ (antibody, V domains shown)
VH: B1 VH with W105Y
VL: B1 VL with T30N, Y31S, V33I, S52T, H56D, D92A, D93Q
modifications: synthon ZZ on reduced interchain Cys
B8: AbG-LB (antibody, V domains shown)
VH: B1 VH with R31N, P41L, N55K, F103L, W105Y
VL: B1 VL with V33I, S52A, H56D, D93E
modifications: synthon LB on reduced interchain Cys
B9: AbA-ZT (antibody, V domains shown)
VH: B1 VH with W105Y
VL: B1 VL with T30N, Y31S, V33I, S52T, H56D, D92A, D93Q
modifications: synthon ZT on reduced interchain Cys
B10: AbK-AAD (antibody, V domains shown)
VH: B1 VH
VL: B1 VL
modifications: synthon AAD on reduced interchain Cys
B11: AbG-WD (antibody, V domains shown)
VH: B1 VH with R31N, P41L, N55K, F103L, W105Y
VL: B1 VL with V33I, S52A, H56D, D93E
modifications: synthon WD on reduced interchain Cys
B12: AbA-WD (antibody, V domains shown)
VH: B1 VH with W105Y
VL: B1 VL with T30N, Y31S, V33I, S52T, H56D, D92A, D93Q
modifications: synthon WD on reduced interchain Cys
B13: AbA-TV (antibody, V domains shown)
VH: B1 VH with W105Y
VL: B1 VL with T30N, Y31S, V33I, S52T, H56D, D92A, D93Q
modifications: synthon TV on reduced interchain Cys
B14: AbK-LB (antibody, V domains shown)
VH: B1 VH
VL: B1 VL
modifications: synthon LB on reduced interchain Cys
B15: AbB-LB (antibody, V domains shown)
VH: B1 VH with R31N, N55K
VL: B1 VL with T30N, Y31S, V33I, S52T, H56D, D92A, D93Q
modifications: synthon LB on reduced interchain Cys

This experiment deals with human Epidermal Growth Factor Receptor (huEGFR) over-expressed in mcl-1-/- mouse embryonic fibroblasts (human, UniProt P00533 25-1210). The experiment in a line: cell-based or functional assay.
For the molecule B1, the “huEGFR^+ mcl-1^-/- MEF EC50” value was 0.15 nM. Consider B2, for which the “huEGFR^+ mcl-1^-/- MEF EC50” value came out at 3.4 nM. Turning to B3, the “huEGFR^+ mcl-1^-/- MEF EC50” value turned out to be 47 nM. With B4, the “huEGFR^+ mcl-1^-/- MEF EC50” value turned out to be 27 nM. Take B5: the “huEGFR^+ mcl-1^-/- MEF EC50” value stood at 35 nM.

Turning to B6, the “huEGFR^+ mcl-1^-/- MEF EC50” value was 23 nM. For B7, the “huEGFR^+ mcl-1^-/- MEF EC50” value was determined as 186 nM.

Turning to B8, the “huEGFR^+ mcl-1^-/- MEF EC50” value worked out at 24 nM. For the molecule B9, the “huEGFR^+ mcl-1^-/- MEF EC50” value was found to be 104 nM. Turning to B10, the “huEGFR^+ mcl-1^-/- MEF EC50” value worked out at 0.4 nM. In the case of B11 it was 5.8 nM. On to B12, for which the “huEGFR^+ mcl-1^-/- MEF EC50” value was 304 nM. The result for B13 reads 3 nM. Consider B14, for which the “huEGFR^+ mcl-1^-/- MEF EC50” value came to 17 nM. With B15, the “huEGFR^+ mcl-1^-/- MEF EC50” value is 31 nM.
